# Like-named read-outs stand apart in the source and are kept apart here.
# T1: human OX40 expressed on cells (293T-OX40, Jurkat-OX40) (human, UniProt P43489 29-277)
# T1 sequence (looked up): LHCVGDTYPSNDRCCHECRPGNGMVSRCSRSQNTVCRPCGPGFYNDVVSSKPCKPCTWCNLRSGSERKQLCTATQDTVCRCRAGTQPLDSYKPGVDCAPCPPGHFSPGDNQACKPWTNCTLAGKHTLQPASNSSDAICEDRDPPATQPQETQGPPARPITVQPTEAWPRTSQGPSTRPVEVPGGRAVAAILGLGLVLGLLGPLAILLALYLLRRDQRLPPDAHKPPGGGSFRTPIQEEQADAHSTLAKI
# T2: OX40-ECD-hFc (human, UniProt P43489 29-214)
# T2 construct: extracellular domain; Coated on the ELISA plate; also called OX40-hFc protein; not shown: human Fc (hFc)
# T2 sequence (looked up): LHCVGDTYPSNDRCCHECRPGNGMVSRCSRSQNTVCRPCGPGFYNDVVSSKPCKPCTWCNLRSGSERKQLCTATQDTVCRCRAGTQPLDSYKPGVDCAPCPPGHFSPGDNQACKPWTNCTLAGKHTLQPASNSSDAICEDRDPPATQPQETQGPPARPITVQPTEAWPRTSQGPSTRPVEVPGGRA
# Legend:
# [1] = molecular target: T1, human OX40 expressed on cells …; assay: cell-based or functional assay
# [2] = molecular target: T1, human OX40 expressed on cells …; assay: cell-based or functional assay; remark: listed apart in the source
# [3] = molecular target: T1, human OX40 expressed on cells …; assay: FACS on 293T-OX40 cells
# Experimental: (§1) (3) FACS Screening for Antibodies Binding to OX40-ECD. 50 μL of the hybridoma supernatant tested positive in the ELISA tests was pipetted and mixed with 50 μL of 293T-OX40 cells (1×10⁵ cells/well), and the mixture was added to a 96-well plate with a U-shaped bottom and incubated for 1 hour. After the mixture was centrifuged and washed twice with FACS buffer (PBS+3% FCS), PE-labeled goat anti-mouse secondary antibody (Biolegend, Cat. No.: 405307) diluted at 1:400 was added, the mixture was incubated for 30 minutes, and washed with FACS buffer, and then PE signal of 293T-OX40 cells was detected using a BD C6 flow cytometer.
# Purified humanized antibody samples were tested for their binding to OX40 using FACS and for their ability to block the OX40L/OX40 signaling pathway using a reporter gene assay. The specific methods are referenced from Example 1. The results are shown in Table 6, Table 7, FIG. 7 and FIG. 8. The effects of the humanized antibodies on the function of primary T cells were tested, including an MLR response test of the inhibitory effect of the OX40 humanized antibody on the proliferation of CD4+ T cells, and a test of the inhibitory effect of the OX40 humanized antibody on the proliferation of CD8+ T cells induced by CEF.
# [4] = molecular target: T1, human OX40 expressed on cells …; assay: cell-based or functional assay; remark: listed apart in the source
# [5] = molecular target: T1, human OX40 expressed on cells …; assay: FACS on 293T-OX40 cells; remark: listed apart in the source
# Experimental: as §1
# (§2) The activity of the purified antibody sample to bind OX40 and block the binding of OX40 to OX40L was tested via ELISA and FACS. Specific methods are described in steps (2), (3) and (4) in Example 1. 6 monoclonal OX40 hybridoma antibodies 1G2, 3G4, 9G7, 177G5, 118A10 and 119H2 were tested. Test results are shown in Table 1 to Table 3 and FIGS. 1 to 3.
# OX40-ECD-hFc = molecular target: T2, OX40-ECD-hFc; assay: ELISA, OX40-ECD-hFc coated on plate
# Experimental: (2) ELISA Screening for Antibodies Binding to OX40-ECD. 96-well ELISA plate (Corning, Cat. No.: 9018) was inoculated with OX40-ECD-hFc, left at 4° C. overnight, and washed 3 times with wash buffer (PBS+0.05% Tween 20), then blocking buffer (PBS+1% BSA (Sigma, Cat. No.: V90093)) was added, and the 96-well ELISA plate was incubated for 1 hour and washed 3 times; hybridoma supernatant was added, the 96-well ELISA plate was incubated for 1 hour and washed 3 times; and 100 μL of goat anti-mouse IgG secondary antibody (Thermo, Cat. No.: 31432) diluted at 1:10000 was added to each well, and the 96-well ELISA plate was incubated at room temperature for 1 hour and washed 3 times. 100 µL of TMB (Biosubstrate Technologies, Cat. No.: ES-002) was added to each well and left for 3 minutes for color development, then a stop solution (2N H₂SO₄) was added at a dose of 100 μL/well to terminate the reaction, and the OD450 signal of each sample was measured with a Tecan Spark microplate reader.
# as §2
Binder,"IC50 of reporter gene assay (NF-kB-luciferase, Jurkat-OX40 cells + OX40L) [1] [µg/mL]","EC50 of ADCC activity (LDH release, Jurkat-OX40 target cells + PBMC) [2] [µg/mL]",EC50 [3] [µg/mL],"IC50 of reporter gene assay (NF-kB-luciferase, Jurkat-OX40 cells + OX40L) [4] [µg/mL]",EC50 [5] [µg/mL],EC50 (OX40-ECD-hFc) [µg/mL]
"humanized anti-OX40 antibody hu9G7-DE (antibody, V domains shown, Constructed as human IgG1 with constant region Ser239, Ala330 and Ile332 mutated to Asp, Leu and Glu; also called humanized antibody 9G7; combination C') VH: EVQLVESGGGLVQPGGSLRLSCAASGFTFSDYYMYWVRQAPGKGLEWVAYISNGDISTYYPDTVKGRFTISRDNAKNSLYLQMNSLRAEDTAVYYCARDDGYSAWFAYWGQGTTVTVSS VL: DIVMTQSPDSLAVSLGERATINCKSSQSLLNSSNQKNYLAWYQQKPGQPPKLLVYFASTRESGVPDRFSGSGSGTDFTLTISSLQAEDVAVYYCQQHYYTPFTFGQGTKLEIK",0.0575,0.00143,0.0623,,,
"murine OX40 hybridoma antibody 1G2 (antibody, V domains shown, Purified murine monoclonal hybridoma antibody) VH: EVQLQQSGPDLVKPGASVKMSCKASGYRFTSYVMHWVKQRPGQGLEWIGYINPYNDNTRYNEKFKGKATLTSDKSSSTAYMELSSLTSEDSAVYYCAAYYGDYVYLDYWGQGTTLTVSS VL: DIQMTQTTSSLSASLGDRVTISCRASQDINNYLNWYQQKPDGTVKLLIYYTSRLHSGVPSRFSGSGSGTDYSLIISNLEQEDIATYFCQQGNTLPWTFGGGTKLEIKR",,,,0.117,0.0805,0.0157
"humanized anti-OX40 antibody hu177G5-DE (antibody, V domains shown, Constructed as human IgG1 with constant region Ser239, Ala330 and Ile332 mutated to Asp, Leu and Glu; also called humanized antibody 177G5; combination D') VH: QVQLVESGGGLVKPGGSLRLSCAASGFTFSDFYMYWIRQAPGKGLEWVATISDGGSYTYYPDIVKGRFTISRDNAKNSLNLQMNSLRAEDTAVYYCTTKNGNHIGFAYWGQGTTVTVSS VL: DIQMTQSPSSLSASVGDRVTITCRASENIYSNLAWYQQKPGKAPKLLVYAATNLADGVPSRFSGSGSGTDYTLTISSLQPEDFATYYCQHFWGIPWTFGGGTKVEIK",0.309,0.00236,0.096,,,
"murine OX40 hybridoma antibody 118A10 (antibody, V domains shown, Purified murine monoclonal hybridoma antibody) VH: EVKLDETGGGLVQPGRPMKLSCVASGFTFSDYWLNWVRQSPEKGLEWVAQIRNKPYHYETFYSESVKGRFTISRDDSKSSVYLQMNDLRGEDTGIYYCTGYFDYWGQGTTLTVSS VL: DIVLTQSPASLTISLGQRATISCRASQSVSTSTYSYIHWYQQKPGQPPRLLIKYASNLESGVPARFSGSGSGTDFTLNIHPVEEEDTATYYCQHSWGIPPTFGGGTKLEIKR",,,,0.198,0.0735,0.0249
"murine OX40 hybridoma antibody 3G4 (antibody, V domains shown, Purified murine monoclonal hybridoma antibody) VH: EVQLQQSGPELVKPGTSVKMSCKASGYRFTSYVLHWVRRKPGQGLEWIGYVNPFNDNTRYNEKFKAKATLTSDKSSSTAYMDLVSLTSEDSAVYYCSRGLYDYSYVMDYWGQGTSVTVSS VL: DIQMTQTTSSLSASLGDGVTITCQASQDIRNYLNWYQQKPDGTIKLLIYHTSKLHSGVPSRFSGGGSGTDFSLTISNLDQEDIATYFCQQSQTLPYTFGGGTKLEIKR",,,,0.0361,0.0537,0.0163
"humanized anti-OX40 antibody hu3G4-DE (antibody, V domains shown, Constructed as human IgG1 with constant region Ser239, Ala330 and Ile332 mutated to Asp, Leu and Glu; also called humanized antibody 3G4; combination B') VH: QVQLVQSGAEVKKPGASVKVSCKASGYRFTSYVLHWVRQAPGQRLEWIGYVNPFNDNTRYNEKFKARATLTSDKSASTAYMELSSLRSEDTAVYYCSRGLYDYSYVMDYWGQGTLVTVSS VL: DIQMTQSPSSLSASVGDRVTITCQASQDIRNYLNWYQQKPGKAPKLLIYHTSKLHSGVPSRFSGSGSGTDFTFTISSLQPEDIATYYCQQSNTLPYTFGQGTKLEIK",0.0181,0.00152,0.0713,,,

# Continued, values first:
"IC50 of reporter gene assay (NF-kB-luciferase, Jurkat-OX40 cells + OX40L) [1] [µg/mL]","EC50 of ADCC activity (LDH release, Jurkat-OX40 target cells + PBMC) [2] [µg/mL]",EC50 [3] [µg/mL],"IC50 of reporter gene assay (NF-kB-luciferase, Jurkat-OX40 cells + OX40L) [4] [µg/mL]",EC50 [5] [µg/mL],EC50 (OX40-ECD-hFc) [µg/mL],Binder
,,,~0.0361,0.0369,0.0198,"murine OX40 hybridoma antibody 9G7 (antibody, V domains shown, Purified murine monoclonal hybridoma antibody) VH: EVKLVESGGGLVQPGGSLKLSCAASGFTFSDYYMYWVRQTPEKRLEWVAYISNGDISTYYPDTVKGRFTISRDNAKNTLYLQMSRLKSEDTAMYYCARDDGYSAWFAYWGQGTLVTVSA VL: not shown"
,,,0.253,0.0499,0.0215,"murine OX40 hybridoma antibody 177G5 (antibody, V domains shown, Purified murine monoclonal hybridoma antibody) VH: EVQLVESGGGLVKPGGSLKLSCAASGFTFSDFYMYWVRQTPEKRLEWVATISDGGSYTYYPDIVKGRFTISRDNAKNNLNLQMSSLKSDDTAMYYCTTKNGNHIGFAYWGQGTLVTVSA VL: DIQMTQSPASLSVSVGETVTITCRASENIYSNLAWYQQKQGKSPQLLVYAATNLADGVPSRFSGSGSGTQYSLKINSLQSEDFGSYYCQHFWGIPWTFGGGTKLEIKR"
,,,0.179,0.0413,0.023,"murine OX40 hybridoma antibody 119H2 (antibody, V domains shown, Purified murine monoclonal hybridoma antibody) VH: EVKLDATGGGLVQPGRPMKLSCVASGFTFSDYWMNWVRQSPEKGLEWVAQIRNKPYNYETFYSDSVKGRFTISRDDSKSSVYLQMNNLRAEDMGIYYCTGYFDYWGQGTTLTVSS VL: DIVLTQSPASLAVSLGQRATISCRASQSVSTSSYSYMHWYQQKPGQPPKLLIKYASNLESGVPARFSGSGSGTDFTLNIHPVEEEDTATYYCQHSWGIPPTFGGGTKLEIKR"
